Broadly, the Kd is the equilibrium constant for the complex coming apart. Higher therefore signals weaker binding. One may read the koff as the rate constant with which the complex falls apart.

Experimental findings from publication PMC8907193, “The YΦ motif defines the structure-activity relationships of human 20S proteasome activators” (Nature Communications, 2022) are described below.

Like-named read-outs stand apart in the source and are kept apart here.

The target in assay [1] is human 20S proteasome (human) (UniProt P60900).
The target in assay [2] is biotinylated human 20S proteasome (human) (UniProt P60900). Description: BLI. On the technique in general: In BLI a coated tip is dipped into the sample, and binding shifts an interference pattern.

For the substance PA26^AY, the EC50 of stimulation of h20S activity in assay [1] amounted to 8.3 nM.

In assay [2], PA26^AY (from UniProt Q9U8G2) yielded a Kd of 0.28 nM and a koff of 0.0004 s⁻¹.

In assay [1], PA26^YA registered an EC50 of stimulation of h20S activity above 3000 nM and a stimulation of h20S activity, loss against PA26^YY of 80 % reduction.

In assay [2], PA26^YA (from UniProt Q9U8G2) had a Kd of 36 nM and a koff of 0.011 s⁻¹.

Consider “PA26^E102A (disabled-loop mutant) (from UniProt Q9U8G2)”, for which the Kd in assay [2] (natural protein) is above 100 nM.
